One may read the Kd as the concentration at which binding is half-saturated. Read a low Kd as tighter binding.

Substitutions are numbered along the chain they refer to.

The text below walks through data of paper PMC6222848, “Spatial Overlap of Claudin- and Phosphatidylinositol Phosphate-Binding Sites on the First PDZ Domain of Zonula Occludens 1 Studied by NMR” (Molecules : A Journal of Synthetic Chemistry and Natural …, 2018).

The target in test [1] is T1, GST-tagged mouse ZO-1(PDZ1) (residues 18–110) (mouse, UniProt P39447 18-110).
T1 construct: zonula occludens 1 (ZO-1), mouse, first PDZ domain, residues 18-110; The methods say that the GST fusion proteins were used for the SPR analysis; also called first PDZ domain of zonula occludens 1; wild-type; source: E. coli BL21 (DE3), purified (glutathione-Sepharose FF), dialyzed
T1 sequence (looked up): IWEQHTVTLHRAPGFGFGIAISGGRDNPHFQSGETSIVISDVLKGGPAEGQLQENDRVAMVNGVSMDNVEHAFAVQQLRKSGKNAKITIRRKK
The test is described as follows: SPR; BIACORE-3000; Trx-CLD3 peptide immobilized on a CM5 chip, PDZ domain as analyte (0 to 100 ug/mL), 20 uL/min; 10 mM HEPES pH 7.4, 150 mM NaCl, 3 mM EDTA, 0.005% Surfactant P20; KD by 'Affinity from steady-state'; no phytic acid. Conditions: both partners purified. A general note: Surface plasmon resonance follows binding to a sensor surface in real time, without labels.

Test [2] deals with T2, mouse ZO-1(PDZ1) Arg28 Ala-substituted mutant (mouse, UniProt P39447 18-110, Arg28 Ala-substituted).
T2 construct: zonula occludens 1 (ZO-1), mouse, first PDZ domain, residues 18-110, with Arg28 changed to Ala; Made by mutagenesis of the whole expression plasmid of ZO-1(PDZ1); no cleavage of GST is described for the mutants; also called Arg28 mutation; source: purified with glutathione-Sepharose, dialyzed
T2 sequence (looked up): T1 sequence (looked up) with R11A
The test is described as above. Conditions: both partners purified.

B1: His6-tagged thioredoxin (Trx) fusion protein of mouse CLD-3 C-terminus (Trx-CLD3, residues 210–219) (domain or fragment, UniProt Q9Z0G9 210-219, looked up)
chain: GTAYDRKDYV
notes: claudin-3 (CLD-3), mouse, C-terminus, residues 210-219; also called Trx-CLD3 peptide; CLD-3 peptide; source: E. coli BL21 (DE3), purified (Ni2+-chelating-Sepharose), dialyzed
B1: in test [1], binding was put at a Kd of 170 nM. Also, the binding result in test [2] was “binds”.
